Tests used:
[1] = target: T1, bL4_C36 (HIV-1 gp41 HR2-derived biotinylated peptide C36) (HIV-1 HXB2, N-terminal biotin; C-terminal amide); assay: ELISA, biotinylated peptide on streptavidin, anti-His-HRP detection, sigmoid fit, apparent KD
T1 construct: also called gp41 C36 target peptide; control peptide C36
T1 peptide: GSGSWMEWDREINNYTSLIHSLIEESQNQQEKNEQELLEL

[2] = target: T2, Biotinylated N51 (HIV-1 gp41 HR1-derived peptide, residues 540 to 590 of HIV-1 HXB2) (HIV-1 HXB2, N-terminal biotin); assay: as above
T2 construct: Immobilised through biotin on streptavidin; also called HIV-1 N51; biotinylated HIV-1 N51

[3] = target: T1, bL4_C36 (HIV-1 gp41 HR2-derived …); assay: ELISA, biotinylated peptide on streptavidin, anti-His-HRP detection, apparent KD
[4] = target: T2, Biotinylated N51 (HIV-1 gp41 …); assay: SPR (BIAcore), biotinylated N51 on streptavidin chip, 1:1 Langmuir fit

B1: Alphabody 'scAB_Env03' (designed binder)
chain: MGHHHHHHHHHHSSGHIEGRHMSIEEIQKPIATIQEAIAWIQKKIYMMTGGSGGGSGGGSGGGSGMSIEEIQKQIAAIQKQIAAIQKQIYAMTGGSGGGSGGGSGGGSGMSIEEIQKQIVAIMEQIVAIVKQISAMTP
notes: The tag of the construct tested is not described; also called scAB013_Env03
With B1 as the binder, how does the Kd [1] read?
Its Kd is 211 nM.

B2: Alphabody 'scAB013_C2' (designed binder)
chain: MSIEEIQKQIAAIQKQIAAIQKQIYRMTGGSSGGSMQMYTIQIQILIIQAQIQQIQNQIELMTLGGSSGGMSIEEIQKQIAAIQKQIAAIQKQIYRMTPLEHHHHHH
notes: Single-chain Alphabody that mimics gp41 HR2 (grafted B-helix), made in E. coli; also called wild type scAB013_C2
How did the Kd [2] turn out when B2 was run?
Its Kd is 18 nM.

What about the Kd [3] of the same binder?
The Kd was greater than 10 µM.

And the Kd [4]?
The Kd was 2.07 nM.

And the koff [4]?
Its koff is 0.000209 s⁻¹.

What about the kon [4] of the same binder?
The kon was 101000 M⁻¹ s⁻¹.
